Assay results taken from the Immune Epitope Database (IEDB).

Tests used:
HLA-A*02:03 = assay: IEDB peptide-MHC binding, purified MHC/competitive/radioactivity; filed as Kd, often an IC50 or EC50 that approximates it; ≥ and ≤ were set here for values at or beyond the usual limits of such assays
HLA-A*68:02 = assay: as above
HLA-B*54:01 = assay: as above; conditions: source organism: Vaccinia virus WR
HLA-A*03:01 [1] = assay: as above; conditions: source organism: Vaccinia virus WR
HLA-A*02:01 = assay: as above; conditions: source organism: Vaccinia virus WR
HLA-A*02:06 = assay: as above
HLA-B*35:01 = assay: as above; conditions: source organism: Vaccinia virus WR
HLA-A*68:01 = assay: as above; conditions: source organism: Vaccinia virus WR
HLA-A*11:01 [2] = assay: as above; conditions: source organism: Vaccinia virus WR
HLA-A*02:02 = assay: as above; conditions: source organism: Vaccinia virus WR
HLA-A*31:01 [3] = assay: as above; conditions: source organism: Vaccinia virus WR
HLA-B*07:02 = assay: as above; conditions: source organism: Vaccinia virus WR
HLA-B*51:01 = assay: as above; conditions: source organism: Vaccinia virus WR
HLA-A*33:01 = assay: as above; conditions: source organism: Vaccinia virus WR
HLA-B*53:01 = assay: as above; conditions: source organism: Vaccinia virus WR
HLA-B*15:03 = assay: as above
HLA-A*32:01 = assay: as above
HLA-B*15:01 = assay: as above
HLA-B*08:01 = assay: as above
HLA-A*03:01 [4] = assay: IEDB peptide-MHC binding, purified MHC/direct/fluorescence; filed as Kd, often an IC50 or EC50 that approximates it; ≥ and ≤ were set here for values at or beyond the usual limits of such assays
HLA-A*11:01 [5] = assay: as above
HLA-A*31:01 [6] = assay: IEDB peptide-MHC binding, purified MHC/competitive/fluorescence; filed as Kd, often an IC50 or EC50 that approximates it; ≥ and ≤ were set here for values at or beyond the usual limits of such assays
HLA-A*30:02 = assay: IEDB peptide-MHC binding, purified MHC/competitive/radioactivity; filed as Kd, often an IC50 or EC50 that approximates it; ≥ and ≤ were set here for values at or beyond the usual limits of such assays; conditions: source organism: Dengue virus 1 Brazil/97-11/1997
HLA-A*03:01 [7] = assay: IEDB peptide-MHC binding, purified MHC/competitive/fluorescence; filed as Kd, often an IC50 or EC50 that approximates it; ≥ and ≤ were set here for values at or beyond the usual limits of such assays
HLA-A*24:02 = assay: IEDB peptide-MHC binding, purified MHC/competitive/radioactivity; filed as Kd, often an IC50 or EC50 that approximates it; ≥ and ≤ were set here for values at or beyond the usual limits of such assays; conditions: source organism: Dengue virus 4 Philippines/H241/1956
HLA-A*01:01 = assay: as above; conditions: source organism: Dengue virus 3 Martinique/1243/1999
[8] = source organism: Vaccinia virus WR
[9] = source organism: Vaccinia virus Copenhagen
[10] = source organism: Dengue virus 2 Peru/IQT2913/1996
[11] = source organism: Mycobacterium tuberculosis
[12] = source organism: Dengue virus 1 Brazil/97-11/1997
[13] = source organism: Escherichia coli O157:H7
[14] = source organism: Yellow fever virus
[15] = source organism: West Nile virus
[16] = source organism: Dengue virus 4 Philippines/H241/1956
[17] = source organism: Escherichia coli 536
[18] = source organism: Dengue virus 2 Jamaica/1409/1983
[19] = source organism: Dengue virus 3 Martinique/1243/1999

Q: NTYLFNILY was tested. Which Kd (HLA-A*02:03; [8]) did it give?
A: 1.55 µM

Q: And the Kd (HLA-A*68:02; [8])?
A: 7.35 µM

Q: What about the Kd (HLA-B*54:01) of the same sequence?
A: 1.43 µM

Q: And the Kd (HLA-A*03:01 [1])?
A: 0.625 µM

Q: What about the Kd (HLA-A*02:01) of the same sequence?
A: 0.946 µM

Q: What about the Kd (HLA-A*02:06; [8]) of the same sequence?
A: 6.11 µM

Q: What about the Kd (HLA-B*35:01) of the same sequence?
A: 10.5 µM

Q: And the Kd (HLA-A*68:01)?
A: 0.722 µM

Q: And the Kd (HLA-A*11:01 [2])?
A: 0.263 µM

Q: What about the Kd (HLA-A*02:02) of the same sequence?
A: 1.57 µM

Q: What about the Kd (HLA-A*31:01 [3]) of the same sequence?
A: 0.688 µM

Q: What about the Kd (HLA-B*07:02) of the same sequence?
A: ≥ 29.2 µM

Q: What about the Kd (HLA-B*51:01) of the same sequence?
A: 17.7 µM

Q: What about the Kd (HLA-A*33:01) of the same sequence?
A: 1.48 µM

Q: What about the Kd (HLA-B*53:01) of the same sequence?
A: 5.69 µM

Q: With RKYGCGNMF as the sequence, how does the Kd (HLA-B*15:03; [8]) read?
A: 0.00125 µM

Q: Which results are given for RLYSIFLIF?
A: Kd (HLA-A*32:01; [9]): 0.00687 µM; Kd (HLA-B*15:03; [9]): 0.000158 µM; Kd (HLA-B*15:01; [9]): 0.00335 µM; Kd (HLA-B*08:01; [9]): 15.7 µM

Q: RQMEGEGVF was tested. Which Kd (HLA-A*32:01; [10]) did it give?
A: 0.429 µM

Q: And the Kd (HLA-B*15:01; [10])?
A: 0.00486 µM

Q: With RSADGSPPY as the sequence, how does the Kd (HLA-A*03:01 [4]; [11]) read?
A: 2.5 µM

Q: And the Kd (HLA-A*11:01 [5]; [11])?
A: 0.0257 µM

Q: What about the Kd (HLA-A*31:01 [6]; source organism: Mycobacterium tuberculosis variant bovis BCG str. Pasteur 1173P2) of the same sequence?
A: ≥ 20 µM

Q: How did the Kd (HLA-B*15:01; [12]) turn out when RSQVGVGVF was run?
A: 0.026 µM

Q: With RVIYPANQK as the sequence, how does the Kd (HLA-A*03:01 [4]; [13]) read?
A: 0.035 µM

Q: And the Kd (HLA-A*11:01 [5]; [13])?
A: 0.0069 µM

Q: What about the Kd (HLA-A*31:01 [6]; source organism: Escherichia coli O157:H7 str. Sakai) of the same sequence?
A: 0.0722 µM

Q: What does the source list for SLNTSTLGF?
A: Kd (HLA-A*32:01; [9]): 0.416 µM; Kd (HLA-B*15:03; [9]): 0.0131 µM; Kd (HLA-B*15:01; [9]): 0.00167 µM

Q: With SPVMSGNSY as the sequence, how does the Kd (HLA-B*15:03; [8]) read?
A: 0.363 µM

Q: With SSMKGENVF as the sequence, how does the Kd (HLA-B*15:03; [8]) read?
A: 0.047 µM

Q: With TINAVASRK as the sequence, how does the Kd (HLA-A*11:01 [5]; [14]) read?
A: 0.0043 µM

Q: And the Kd (HLA-A*31:01 [6]; [14])?
A: 0.801 µM

Q: With TLNHVLALK as the sequence, how does the Kd (HLA-A*02:03; [8]) read?
A: 0.281 µM

Q: And the Kd (HLA-A*68:02; [8])?
A: ≥ 76.9 µM

Q: What about the Kd (HLA-B*54:01) of the same sequence?
A: ≥ 78.1 µM

Q: And the Kd (HLA-A*03:01 [1])?
A: 0.00247 µM

Q: And the Kd (HLA-A*02:01)?
A: ≥ 78.1 µM

Q: And the Kd (HLA-A*02:06; [8])?
A: 14.1 µM

Q: What about the Kd (HLA-B*35:01) of the same sequence?
A: 10.4 µM

Q: And the Kd (HLA-A*68:01)?
A: 0.00417 µM

Q: And the Kd (HLA-A*11:01 [2])?
A: 0.00128 µM

Q: And the Kd (HLA-A*02:02)?
A: ≥ 77.8 µM

Q: And the Kd (HLA-A*31:01 [3])?
A: 0.0361 µM

Q: What about the Kd (HLA-B*07:02) of the same sequence?
A: ≥ 77.5 µM

Q: And the Kd (HLA-B*51:01)?
A: ≥ 77.5 µM

Q: What about the Kd (HLA-A*33:01) of the same sequence?
A: 0.656 µM

Q: And the Kd (HLA-B*53:01)?
A: ≥ 78.2 µM

Q: Which Kd (HLA-A*30:02) does the source give for TMAHRKPTY here?
A: 2.06 µM

Q: What about the Kd (HLA-B*15:01; [12]) of the same sequence?
A: 0.144 µM

Q: What does the source list for VIGFLALAK?
A: Kd (HLA-A*03:01 [4]; source organism: Amur virus): 0.232 µM; Kd (HLA-A*11:01 [5]; source organism: Amur virus): 0.0126 µM; Kd (HLA-A*31:01 [6]; source organism: Orthohantavirus dobravaense): ≥ 20 µM

Q: What does the source list for VLALLAFFR?
A: Kd (HLA-A*03:01 [7]; [15]): 0.16 µM; Kd (HLA-A*31:01 [6]; [15]): 1.08 µM

Q: VMKRYSAPF was tested. Which Kd (HLA-A*24:02) did it give?
A: 0.994 µM

Q: What about the Kd (HLA-B*15:01; [16]) of the same sequence?
A: 0.0102 µM

Q: What about the Kd (HLA-B*08:01; [16]) of the same sequence?
A: 0.00898 µM

Q: With VTVVAVPLR as the sequence, how does the Kd (HLA-A*03:01 [7]; [17]) read?
A: ≥ 20 µM

Q: What about the Kd (HLA-A*31:01 [6]; [17]) of the same sequence?
A: 0.107 µM

Q: Which results are given for VVIAILTVV?
A: Kd (HLA-A*02:03; [18]): 0.0338 µM; Kd (HLA-A*68:02; [18]): 0.347 µM; Kd (HLA-A*02:06; [18]): 0.0136 µM

Q: YLFNAIETM was tested. Which Kd (HLA-B*15:01; [8]) did it give?
A: 0.00141 µM

Q: YLHYYRIIR was tested. Which Kd (HLA-A*03:01 [4]; [11]) did it give?
A: ≥ 20 µM

Q: And the Kd (HLA-A*31:01 [6]; source organism: Mycobacterium tuberculosis H37Rv)?
A: 0.245 µM

Q: With YSIPATLLV as the sequence, how does the Kd (HLA-A*68:02; [19]) read?
A: 0.0169 µM

Q: What about the Kd (HLA-A*01:01) of the same sequence?
A: 0.941 µM

Q: And the Kd (HLA-A*02:06; [19])?
A: 0.0102 µM
